We go through four proteins from PMC2571106 (BMC Microbiology, 2008).

Data set [1] deals with the molecule itself. The data set can be described thus: transmission electron microscopy of self-assembly products (negative stain); 1 mg purified, lyophilised recombinant protein in 1 ml 5 M GHCl, 50 mM Tris-HCl pH 7.2, dialysed against 10 mM CaCl2 in distilled water for 18 h; negative stain with 2,5% uranyl acetate.
Data set [2] concerns the molecule itself. The data set can be described thus: transmission electron microscopy of self-assembly products (negative stain); SlpA extracted from L. brevis cells with 2 M GHCl, 1 mg/ml, dialysed against water with 5 mM CaCl2 and then water at +4°C; pelleted self-assembly products in 25 mM Tris-HCl pH 8.0.
Data set [3] concerns the molecule itself. In words: precipitation after dialysis from GHCl (self-assembly test); affinity purified protein dissolved in 5 M GHCl at 1 mg/ml, dialysed against PBS for two hours at 4°C, centrifuged 16,000 x g 30 min, precipitate checked by SDS-PAGE.

B1: full length recombinant SlpA (SlpA 1-435), S-layer protein of Lactobacillus brevis ATCC 8287 (natural protein, UniProt Q05044 31-465, looked up)
chain: KSYATAGAYSTLKTDAATRNVEATGTNALYTKPGTVKGAKVVASKATMAKLASSKKSADYFRAYGVKTTNRGSVYYRVVTMDGKYRGYVYGGKSDTAFAGGIKSAETTTKADMPARTTGFYLTDTSKNTLWTAPKYTQYKASKVSLYGVAKDTKFTVDQAATKTREGSLYYHVTATNGSGISGWIYAGKGFSTTATGTQVLGGLSTDKSVTATNDNSVKIVYRTTDGTQVGSNTWVTSTDGTKAGSKVSDKAADQTALEAYINANKPSGYTVTNPNAADATYGNTVYATVSQAATSKVALKVSGTPVTTALTTADANDKVAANDTTANGSSVAGSTVYAAGTKLAQLTTDLTGEKGQVVTLTAIDTDLEDATFTGTTTYYSDLGKAYHYTYTYNKDSAASSNASTQFGSNVTGTLTATLVMGKSTATANGTTWFN
notes: numbers count on: the mature protein; Two full length constructs were made: pKTH5198 (C-terminal linker-His6) and pKTH5199 (N-terminal His6-linker); no cleavage is mentioned; also called rSlpA; nontruncated rSlpA; source: E. coli BL21(DE3), purified (His Trap HP in 4 M GHCl or 6 M urea)
With B1, the binding result in data set [1] was “binds”.

B2: wild type SlpA isolated from L. brevis ATCC 8287 cells (natural protein, Lactobacillus brevis ATCC 8287, UniProt Q05044 31-465, looked up)
chain: B1 chain
notes: numbers count on: the mature protein; source: extracted from L. brevis ATCC 8287 cells with 2 M GHCl, dialysed
B2: the binding result in data set [2] is listed as “binds”.

B3: rSlpA_(179-435) (domain or fragment, Lactobacillus brevis ATCC 8287, UniProt Q05044 209-465, looked up)
chain: SGISGWIYAGKGFSTTATGTQVLGGLSTDKSVTATNDNSVKIVYRTTDGTQVGSNTWVTSTDGTKAGSKVSDKAADQTALEAYINANKPSGYTVTNPNAADATYGNTVYATVSQAATSKVALKVSGTPVTTALTTADANDKVAANDTTANGSSVAGSTVYAAGTKLAQLTTDLTGEKGQVVTLTAIDTDLEDATFTGTTTYYSDLGKAYHYTYTYNKDSAASSNASTQFGSNVTGTLTATLVMGKSTATANGTTWFN
notes: numbers count on: the mature protein; also called rSlpA C-terminal domain; source: E. coli BL21(DE3), purified (His Trap HP in 4 M GHCl or 6 M urea)
With B3, in data set [3], the binding result is recorded as “binds”.

B4: rSlpA_(146-435) (domain or fragment, Lactobacillus brevis ATCC 8287, UniProt Q05044 176-465, looked up)
chain: LYGVAKDTKFTVDQAATKTREGSLYYHVTATNGSGISGWIYAGKGFSTTATGTQVLGGLSTDKSVTATNDNSVKIVYRTTDGTQVGSNTWVTSTDGTKAGSKVSDKAADQTALEAYINANKPSGYTVTNPNAADATYGNTVYATVSQAATSKVALKVSGTPVTTALTTADANDKVAANDTTANGSSVAGSTVYAAGTKLAQLTTDLTGEKGQVVTLTAIDTDLEDATFTGTTTYYSDLGKAYHYTYTYNKDSAASSNASTQFGSNVTGTLTATLVMGKSTATANGTTWFN
notes: numbers count on: the mature protein; Cloned through an NcoI site; the primer may add residues at the N-terminus (surmise from primer 1602); source: E. coli BL21(DE3), purified (His Trap HP in 4 M GHCl or 6 M urea)
Regarding B4, in data set [3], the binding result is recorded as “binds”.
